± gives the standard deviation of the averaged measurements.
How the values were obtained:
[1] = tested on: Saccharomyces cerevisiae; experiment: protein stability index of tFT-peptide fusion (C-terminal peptide) (PSI (0-1 scale)); higher = more stable (slower turnover)
Description: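 MPS profiling in S. cerevisiae of the tFT-X12 degron library: putative degron peptides plus stable controls, 12 aa, fused to the C-terminus of a sfGFP-mCherry timer. Cells are FACS-sorted into 8 mCherry/sfGFP bins and deep-sequenced. PSI runs from 0 (unstable) to 1 (stable). Backgrounds are wild type, das1Δ and doa10Δ at 30 °C, and wild type, das1Δ, cdc34-1 and cdc53-1 at 37 °C; 2-3 technical replicates each.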

[2] = tested on: Saccharomyces cerevisiae; experiment: as above; conditions: genetic background: wild type; temperature: 30 C
[3] = genetic background: cdc34-1, temperature: 37 C
[4] = genetic background: cdc53-1, temperature: 37 C
[5] = genetic background: das1 deletion, temperature: 30 C
[6] = genetic background: das1 deletion, temperature: 37 C
[7] = genetic background: doa10 deletion, temperature: 30 C
[8] = genetic background: wild type, temperature: 30 C
[9] = genetic background: wild type, temperature: 37 C
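Further: PSI is a weighted mean of sequencing reads over stability bins, variants kept only with over 10 reads, mCherry proximal and sfGFP distal, peptide attached via GGGS linker.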

| Sequence | protein stability index [1, 3] | protein stability index [1, 4] | protein stability index [1, 5] | protein stability index [1, 6] | protein stability index [1, 7] | protein stability index [1, 8] | protein stability index [1, 9] | protein stability index [2] |
| --- | --- | --- | --- | --- | --- | --- | --- | --- |
| SGWGCRMVVCAG | 0.154 ± 0.026 | 0.192 ± 0.028 | 0.186 ± 0.027 | 0.299 ± 0.011 | 0.152 ± 0.0088 | 0.197 ± 0.029 | 0.265 ± 0.0084 | 0.245 ± 0.0031 |
| SHPAPPSPPPSP | 0.618 ± 0.078 | 0.676 ± 0.0076 | 0.384 ± 0.025 | 0.537 ± 0.014 | 0.363 ± 0.0086 | 0.391 ± 0.025 | 0.534 ± 0.0059 | 0.413 ± 0.0094 |
| SILFSYFCFFLL | 0.523 ± 0.027 | 0.545 ± 0.019 | 0.441 ± 0.031 | 0.586 ± 0.014 | 0.274 ± 0.0065 | 0.273 ± 0.028 | 0.443 ± 0.0077 | 0.356 ± 0.01 |
| SLCPFLCILCFG | 0.327 ± 0.0041 | 0.321 ± 0.036 | 0.28 ± 0.023 | 0.402 ± 0.0015 | 0.245 ± 0.0064 | 0.259 ± 0.021 | 0.347 ± 0.0085 | 0.355 ± 0.009 |
| SLCVVIFFSSIT | 0.301 ± 0.011 | 0.437 ± 0.037 | 0.274 ± 0.031 | 0.468 ± 0.019 | 0.2524 ± 0.0025 | 0.266 ± 0.041 | 0.413 ± 0.0017 | 0.356 ± 0.02 |
| SLPVSPLVRLLA | 0.563 ± 0.017 | 0.599 ± 0.0093 | 0.486 ± 0.026 | 0.611 ± 0.0096 | 0.127 ± 0.015 | 0.138 ± 0.02 | 0.2102 ± 0.0012 | 0.235 ± 0.021 |
| SLRICACMTVSW | 0.3 ± 0.0079 | 0.373 ± 0.013 | 0.404 ± 0.086 | 0.335 ± 0.0069 | 0.366 ± 0.0045 | 0.353 ± 0.012 | 0.29 ± 0.013 | 0.353 ± 0.005 |
| SLSALPRPPRLL | 0.669 ± 0.0078 | 0.713 ± 0.022 | 0.673 ± 0.021 | 0.7323 ± 0.0002 | 0.698 ± 0.027 | 0.677 ± 0.023 | 0.694 ± 0.0087 | 0.614 ± 0.26 |
| SPPHSPSALPPP | 0.674 ± 0.025 | 0.726 ± 0.0086 | 0.656 ± 0.023 | 0.732 ± 0.019 | 0.685 ± 0.022 | 0.669 ± 0.0081 | 0.701 ± 0.0078 | 0.587 ± 0.15 |
| SPWSIHLILLQV | 0.209 ± 0.016 | 0.312 ± 0.0012 | 0.265 ± 0.033 | 0.438 ± 0.018 | 0.1894 ± 0.00096 | 0.203 ± 0.029 | 0.36 ± 0.034 | 0.318 ± 0.025 |
| SQCVVYLSVRFS | 0.358 ± 0.067 | 0.5 ± 0.017 | 0.34 ± 0.028 | 0.47856 ± 0.00019 | 0.326 ± 0.014 | 0.353 ± 0.011 | 0.4565 ± 0.0028 | 0.447 ± 0.024 |
| SQKKKIKKYKET | 0.574 ± 0.032 | 0.665 ± 0.14 | 0.644 ± 0.032 | 0.706 ± 0.018 | 0.172 ± 0.0036 | 0.147 ± 0.041 | 0.208 ± 0.049 | 0.217 ± 0.033 |
| SREQANTVYRLI | 0.689 ± 0.011 | 0.7132 ± 0.0048 | 0.631 ± 0.018 | 0.7187 ± 0.0036 | 0.254 ± 0.0066 | 0.3 ± 0.0074 | 0.553 ± 0.0053 | 0.376 ± 0.008 |
| SRFFSCCVFPSF | 0.704 ± 0.02 | 0.7941 ± 0.0034 | 0.67 ± 0.037 | 0.781 ± 0.016 | 0.6764 ± 0.0041 | 0.654 ± 0.0089 | 0.737 ± 0.023 | 0.766 ± 0.017 |
| SRKRIVALMLSG | 0.628 ± 0.012 | 0.678 ± 0.061 | 0.615 ± 0.029 | 0.686 ± 0.032 | 0.153 ± 0.013 | 0.18 ± 0.02 | 0.273 ± 0.0082 | 0.292 ± 0.013 |
| SRNSSRYLLLVS | 0.539 ± 0.05 | 0.58 ± 0.076 | 0.52 ± 0.046 | 0.649 ± 0.0096 | 0.211 ± 0.032 | 0.251 ± 0.027 | 0.405 ± 0.011 | 0.316 ± 0.013 |
| SRVGAGVVRGVG | 0.481 ± 0.031 | 0.534 ± 0.015 | 0.498 ± 0.007 | 0.5403 ± 0.0051 | 0.512 ± 0.011 | 0.493 ± 0.012 | 0.5391 ± 0.0031 | 0.488 ± 0.038 |
| SRVHHLWAILVP | 0.231 ± 0.015 | 0.265 ± 0.0052 | 0.238 ± 0.034 | 0.3712 ± 0.0019 | 0.18 ± 0.0099 | 0.228 ± 0.026 | 0.339 ± 0.0039 | 0.345 ± 0.016 |
| SSGAVGLVIVVC | 0.113 ± 0.028 | 0.185 ± 0.01 | 0.214 ± 0.049 | 0.309 ± 0.0093 | 0.155 ± 0.018 | 0.205 ± 0.023 | 0.247 ± 0.0078 | 0.276 ± 0.014 |
| SSGRLRFISRIH | 0.654 ± 0.033 | 0.7064 ± 0.0053 | 0.656 ± 0.048 | 0.7487 ± 0.0033 | 0.316 ± 0.019 | 0.347 ± 0.018 | 0.5972 ± 0.0037 | 0.454 ± 0.027 |

| Sequence | protein stability index [1, 3] | protein stability index [1, 4] | protein stability index [1, 5] | protein stability index [1, 6] | protein stability index [1, 7] | protein stability index [1, 8] | protein stability index [1, 9] | protein stability index [2] |
| --- | --- | --- | --- | --- | --- | --- | --- | --- |
| SSVFLGWLIVCY | 0.0861 ± 0.0015 | 0.115 ± 0.033 | 0.173 ± 0.043 | 0.2851 ± 0.0027 | 0.154 ± 0.0099 | 0.168 ± 0.021 | 0.255 ± 0.027 | 0.245 ± 0.0037 |
| SSVGLFVLLCLV | 0.31 ± 0.028 | 0.333 ± 0.017 | 0.271 ± 0.039 | 0.503 ± 0.07 | 0.2 ± 0.0056 | 0.205 ± 0.015 | 0.323 ± 0.0056 | 0.302 ± 0.02 |
| STVGAWGRVGEG | 0.435 ± 0.018 | 0.462 ± 0.038 | 0.418 ± 0.035 | 0.484 ± 0.0078 | 0.45024 ± 0.00039 | 0.438 ± 0.016 | 0.472 ± 0.0089 | 0.459 ± 0.025 |
| SVFFRPVLICCA | 0.0234 ± 0.00059 | 0.0313 ± 0.0091 | 0.0774 ± 0.01 | 0.0628 ± 0.0047 | 0.0558 ± 0.0082 | 0.0558 ± 0.013 | 0.048 ± 0.0039 | 0.101 ± 0.037 |
| SVLAIWLTVTLK | 0.0666 ± 0.029 | 0.0696 ± 0.029 | 0.146 ± 0.016 | 0.197 ± 0.0027 | 0.0915 ± 0.023 | 0.0938 ± 0.034 | 0.139 ± 0.0076 | 0.145 ± 0.0018 |
| SVLVSVVLFVRS | 0.114 ± 0.055 | 0.237 ± 0.021 | 0.176 ± 0.019 | 0.33663 ± 7.1e-05 | 0.126 ± 0.032 | 0.168 ± 0.033 | 0.289 ± 0.026 | 0.279 ± 0.0029 |
| SVSMYPKPHLIC | 0.571 ± 0.057 | 0.682 ± 0.023 | 0.596 ± 0.034 | 0.698 ± 0.034 | 0.119 ± 0.015 | 0.13 ± 0.017 | 0.181 ± 0.015 | 0.243 ± 0.0026 |
| SVSRIFRTFSCY | 0.627 ± 0.023 | 0.759 ± 0.054 | 0.668 ± 0.013 | 0.681 ± 0.047 | 0.216 ± 0.035 | 0.224 ± 0.0094 | 0.396 ± 0.041 | 0.321 ± 0.07 |
| SVVYVIYCGGIL | 0.446 ± 0.0082 | 0.481 ± 0.075 | 0.31 ± 0.036 | 0.555 ± 0.019 | 0.29 ± 0.0048 | 0.336 ± 0.013 | 0.503 ± 0.036 | 0.427 ± 0.036 |
| SWFRRPFPPRLL | – | 0.6 ± 0.025 | 0.606 ± 0.052 | 0.67 ± 0.063 | 0.048 ± 0.068 | – | 0.0127 ± 0.018 | 0.158 ± 0.094 |
| SWLAQCVVISLL | 0.634 ± 0.015 | 0.654 ± 0.014 | 0.507 ± 0.029 | 0.662 ± 0.016 | 0.352 ± 0.0055 | 0.364 ± 0.019 | 0.56 ± 0.061 | 0.459 ± 0.011 |
| TALSRLFECFLS | 0.654 ± 0.052 | 0.744 ± 0.026 | 0.701 ± 0.028 | 0.768 ± 0.01 | 0.328 ± 0.0048 | 0.343 ± 0.03 | 0.499 ± 0.035 | 0.461 ± 0.046 |
| TCGAKWIFSHIC | 0.6 ± 0.054 | 0.754 ± 0.011 | 0.646 ± 0.022 | 0.772 ± 0.016 | 0.14 ± 0.0052 | 0.152 ± 0.0092 | 0.275 ± 0.035 | 0.267 ± 0.019 |
| TFVGWIVWLCGS | 0.537 ± 0.026 | 0.621 ± 0.0073 | 0.487 ± 0.033 | 0.6164 ± 0.0052 | 0.216 ± 0.0069 | 0.258 ± 0.022 | 0.456 ± 0.0097 | 0.331 ± 0.018 |
| TFVLREYVWVMS | 0.443 ± 0.049 | 0.425 ± 0.011 | 0.254 ± 0.038 | 0.443 ± 0.0057 | 0.202 ± 0.0032 | 0.231 ± 0.027 | 0.426 ± 0.027 | 0.304 ± 0.0032 |
| TIKGRLNVRKIE | 0.653 ± 0.055 | 0.7066 ± 0.0065 | 0.623 ± 0.0085 | 0.741 ± 0.025 | 0.3538 ± 0.0019 | 0.463 ± 0.032 | 0.573 ± 0.085 | 0.552 ± 0.11 |
| TPYIFVLACLHV | 0.395 ± 0.0014 | 0.476 ± 0.0062 | 0.326 ± 0.013 | 0.5039 ± 0.0042 | 0.274 ± 0.013 | 0.309 ± 0.021 | 0.461 ± 0.0069 | 0.372 ± 0.0091 |
| TRKKENERRKNG | 0.653 ± 0.032 | 0.7213 ± 0.0044 | 0.654 ± 0.015 | 0.71 ± 0.025 | 0.245 ± 0.013 | 0.278 ± 0.04 | 0.558 ± 0.012 | 0.422 ± 0.031 |
| TSFCIFFVRFVI | 0.374 ± 0.059 | 0.478 ± 0.021 | 0.365 ± 0.022 | 0.50904 ± 0.00041 | 0.277 ± 0.021 | 0.289 ± 0.041 | 0.469 ± 0.015 | 0.322 ± 0.025 |

Reference: the supplement of paper PMC10724198
